Assay: soluble on expression in E. coli; label from the status in PepcDB or PDB records

Row | Sequence | soluble on expression in E. coli
1 | MSLYSNESAIQLISLARSIDQLQKIDSVVSFHDGAQLDALTIANALELPFSLSMGAIVNTRDKQLSRRILREKNLTEVQSAIAENEQDLHDFFKIYPQVNKVIVKPVAGTGSENVRSLESKELETANLDNVYPVLVEQFVEGREFSVEAFMQEGKCHIFAITEKFKDAQSFIETGHLVPARLSSDEHEKIAAFIAKVLPALGVVSGITHSEIMLGEKIELIETHTRVGGDRIFDLVQMTTGIDMYRLQALQSLGLPIGEDELTPKLNGKHACIKFKLNDHPGKKVIRVNGEEEIKNWSGVEDVSITHQAGEVLPQIVNSFDRSASVLVLCDSSEQALSIAEEAIQKLEFVVGEGHHHHHH | not soluble
2 | MSLEPYAAKAHEGYLRNLMLRYSERHEQLMVNIVTSWYDKALMQALKERLEAAMPEQQMTLLNNVTTRKNTVATGEQEYVISGDGYVTERLGDLDFRISANSFFQTNTRQAETLYDQIIAVGGITPEDTVYDLYCGTGTITLYLARHCKQAIGIEVVESAVKDAEMNAELNGLSNTVFFQADLKNFHAMQEALEPYAKPRIIVTDPPRAGMHPKALDTMLKLQPERIVYVSCNPDNLARDGKEIAARGYRMTSAQPVDMFPQTNHIETVACFERAEGHHHHHH | not soluble
3 | GIDPFTVRTRVSEGLVLAEPAKLMISTDGSASTADLTRATTTWNQQSNNLGASSKYVTSVLMDAGNTGVITITYVADQVGLPTAGNTLILSPYINDGNTRTALATAVAAGTRGTIDWACTSASNATATAQGFTGMAAGSVPQEFAPAQCR | soluble
4 | GMSQATAKVNREVQAFLQDLKGKTIDHVFFVACGGSSAIMYPSKYVFDRESKSINSDLYSANEFIQRNPVQLGEKSLVILCSHSGNTPETVKAAAFARGKGALTIAMTFKPESPLAQEAQYVAQYDWGDEALAINTNYGVLYQIVFGTLQVLENNTKFEQAIEGLDQLQAVYEKALKQEADNAKQFAKAHEKESIIYTMASGANYGVAYSYSICILMEMQWIHSHAIHAGEYFHGPFEIIDESVPFIILLGLDETRPLEERALTFSKKYGKKLTVLDAASYDFTAIDDSVKGYLAPLVLNRVLRSYADELAEERNHPLSHRRYMWKVEY | soluble
5 | MRMVDIISKKRDGKALSTEEIQFFIDGYTNGEIPDYQASALAMAIFFQDMNDQERADLTMAMVGSGDTIDLSEIEGIKVDKHSTGGVGDTTTLVLAPLVAAVGVPVAKMSGRGLGHTGGTIDKLESIEGFHIELDKKDFIDLVNRDKVAVIGQSGNLTPADKKMYALRDVTGTVNSIPLIASSIMSKKIAAGADAIVLDVKTGAGAFMKTDEDAENLAHAMVRIGNNVGRNTMAVISDMSQPLGEAIGNALEVKEAIDTLKGQGPEDLTELVLVLGSQMVVLAKQAETLDEARAKLIEVIENGAALEKFKTFLSNQGGDASIVDHPEKLPQAKYQIEVPAKTSGFVSQIVADEIGIAAMILGAGRATKEDEINLAVGLMLRKKVGDAVKEGESLVTIFADQEDVENVKAKIYENIQISDHAIAPTLVHKVITE | not soluble
6 | MKMADAKQKRNEQLKRWIGSETDLEPPVVKRKKTKVKFDDGAVFLAACSSGDTEEVLRLLERGADINYANVDGLTALHQACIDDNVDMVKFLVENGANINQPDNEGWIPLHAAASCGYLDIAEYLISQGAHVGAVNSEGDTPLDIAEEEAMEELLQNEVNRQGVDIEAARKEEERIMLRDARQWLNSGHINDVRHAKSGGTALHVAAAKGYTEVLKLLIQARYDVNIKDYDGWTPLHAAAHWGKEEACRILVENLCDMEAVNKVGQTAFDVADEDILGYLEELQKKQNLLHSEKREKKS | soluble
7 | MASFPFLMTPETMNKLVTPNSASISSSSSSPSTSTSFSIDTLLSNPLAGIPQLHNFQDPFGAVGAAAAASALPWQFHPANYPFFSMLCGPLMPPFMAPYHHQHYASRRKRRHRTIFSEEQLNILETTFSTTHYPDATTREELAVQCSLKEERVEVWFKNRRAKERKQKKDDSRTSKHSGDDSECDESDEDTRKVKRIKRENSSGKETSSPESKASLKTSHSENLVLEPC | not soluble
8 | MKRVMFHAKIHRATVTQADLHYVGSVTVDQDLLDAAGILPFEQVDIYDITNGARLTTYALPGERGSGVIGINGAAAHLVKPGDLVILVAYGVFDEEEARNLKPTVVLVDERNRILEVRKG | soluble
9 | MGSDKIHHHHHHMIPSQHFQSTPTVQFDLLTYMIGSYHYNWHPQIELLWLLQGTVEVNVDGTRHQLHANDLILINANRGHATFALTPECIALRLHILPDFYTNQGIDLSSGAFLLNSVTTPQHRDYQTIRQILAQLYLGLHQQDWPIFDLNALYFQLTNLLHHDFFDTGITMTYPQPKTQSSLNRVIDYINQAYDRPITLNEAAKISHYSPAYLSRIFKAELGLNFYEYLTRCRLQHAIYDLENPTTRVADLALANGFQEVKSFNLMFKKHFGQTPSSYRQHLSHGQRPEYDQFKQPLTPTQTTIVQKQLNHWAQLTSTDQLSACESCMYKLHFQEYQALKQKIAQLKTLLNQ | not soluble
10 | MGHHHHHHSHMYLRHDKPPYTYLAMIALVIQAAPSRRLKLAQIIRQVQAVFPFFREDYEGWKDSIRHNLSSNRCFRKVPKDPAKPQAKGNFWAVDVSLIPAEALRLQNTALCRRWQNGG | soluble
11 | MAHHHHHHMATIGMFNEEGENVDLYIPRKCHATTTLIEAHDHAAVQISIANVGPNGVINGTTTTLCIAGYLRSQGESDHAINHITIDRGIMRIKTGKPKRASKSKSKKPAAKGAAAGAAAQKGARPPAQKGARPPAQKGARPPAQKGARPPAQKGARPPAQKGAAPARKNRA | soluble
12 | MTLALLGSSLPAASLQAGETGISVSASSTVTYNPDTAEFTTTVESTDKDAAKAAAKVATLWSSLQQALRKVGISSADASSTSYTVSPEWEWNSANGKREFKGYKARHVVRVVVRDLGKLGGAIDAVVGAGSGTVDGLSYSSSRFESLRTQALENAVKSAKHDAEVMARAAGGRLGQPLELQYGQPQSDYPVMRFAMAEGFKAAPAPTDVEPGEQKLTVSVSSRWQFVSGSGKLEHHHHHH | not soluble
13 | MFDLEKVQTLNELEMLVYHYVLEHLHQIPQQTIRQLATSCHVSTSTILRFCNKMGYAGFSELKYAVKEEAKQTQTFENFYDATVHVDAFLKKLNQETYYEMLRPAIQMIVQARHVAFTGIGTSGILGSYGSRYFANLNINSYSIADPFTPIPKRGFENTLALILSVSGETNEMIKQMTDFKTAGAKVLSITNNQHSTIARLADYNISYYMPDERSPFADKSVNTTTQIPVIALIELLAHQASQLLKELDETPS | not soluble
14 | GPGSMAMRDVIGDPDLLLRKTPANPKYEHVKPVVETGMTAELARFMKNTGAALYRVSGEPFMRIRTRLIGDFVQKQQSQSGEIKDGGFAHPMDEYRAPDTQLPKEYLILDVRSEEEYAACHIKGALHYPKRRMVHAINPLLPEMFNFKNKENKLIVLYDLEEEMTIAQGIGQNVFEKGIDNLAVMTGGLREFVQDYADCIVGESPVPIVPRDTRLLKRAEAVSAARSETQRSAFSHKPKSLSNSLAKPRPR | soluble
15 | MLIGMSNQTVNQAVSSGVKASPHRFNRFEIKYLITEQDVPALREQLATRMSTDPLSPPGGYRVESLYFDSADLRCYTEKIEGLKFRRKLRIRTYGDGVLTPESTVSVEIKQRVNKVTQKRRLDLPFIYALALGDSTGAAVGEQVDVEKLLEISPENQHALIHEMASFAKNYRLRPIATTKYHREAFVGADAEESSRVTIDHGVSGRDRDFLLGQDLEDRPTVAQGLAVVEIKCDERVPFWLTDMTAQLEMSVIRMSKYCETIEAFHNRPASAFGAVDPIFLEHHHHHH | soluble
16 | MAEKRKLLAEIDKCFKKIDEGVELFEETMEKMHEANSDNQRDKYQDDLKKEIKKLQRLRDQVKNWQNASEIKDKDKLNSYRKLIEQRMEQFKDVERENKTKPHSKLGLSAEEKLDPKEKEKAETMDWIQHQIRSLNEEVDRTEMQLESLSNTDTGKGKRGKKEDAKTKNEREKRVEGLKHHLERINFHIEKLEICMRMISNESLNAKMVLETLKEPIETYVEMMNEEDSEEADNYDPDDAYDELNLEKLCQQIGGVNVASVDDEHRENGHELGIDTAESGAVSGSRHTSGENGQPPSPAGRRIVPLSMPSPHAVTPELKRLASKDSNVDRPRTPPVTPASAAPPPPGIPYNSVAAGRSTTTPVPSTPISANSPAPSLAQAAPIAAASPVFPPAAAAASKPVLAQSVSEMPQKKESITSTTSRGSAAAPATTTTTTTTTTSSEPAEVPLVVQQTVSETFVNGVDSPAAATRLTQQERQQQLQQQHHHQSTIIPTTPTTTTTSSSMLGGMMSTDDPAAALQAALNMAAASQQAVATGPKRAHIPAWLGASPLGRTSMTQEFDGQLAALELACAKATFPLDSEKPRNYLSKVSFPVPSWYGQTAPNTSDSLEYYLRLAPDTLFFIFYYMEGTRAQLLAAKALKKLSWRFHTKYLTWFQRHEEPKQITDDYEQGTYVYFDFEKWSQRKKESFTFEYKFLEDKEFD | not soluble
17 | MPVLTSGQQERKSKQRKIRNSEYYDMEGTFDRLYAESKKDKTFNHLMEIIESEENIKLAYRTIKKNTGSDTSGVDKRTIADLAKLSEEEYVRLIRKQFSNYHPGPVRRVEIPKPNGKTRPLGIPTIVDRIVQQCILQVMEPICEAKFSENSNGFRPNRSAETAIAQCMRLIQVQHLYHVVDLDIKGFFDNISHTKLIRQIWALGIRDKKLLCIIKEMLKAPVVLPNGEKTYPARGTPQGGILSPLLANIVLNELDWWIASQWEEMPTKTKFKTRSNAQGTEIKSHAYRALRRSRLKEMHAVRYADDFKIFCATHEDAVRAYKATELWLKDRLGLEISPDKSKVVNLKRQYSDFLGFKLKVRKKGKKYVVRSHMSDKAYKKAHEKVSEEVKKLAYSSDDNAQFMQLQKYNSVVAGLHEYYCISTEVSHDFSRLAFSINKQLRNRLKGDLSKKGQLRNGFIKEKYGASRQMRFLHGRPVVPLGYVQSKNAQHKRKSINKYTVKGREQIHKNLAIDTATMLWLMRNPVKGRTIEYADNRISLYAAQYGKCAVTGIPMNSHDIHCHHKVPVSNGGSDEYANLILVSKAVHILIHASSEPTIEKYLKSLNLDNKQIEKLNKLRSMAEMPPIIL | not soluble
18 | MEVSKANGTENNVEKFDAATQEATYLDEADVDAELEAMKKRLQEMEEEANRLKEVQEQSASEVPSSEEVDRRSVYVGNVDYGSTPEELQAHFKECGTINRVTILCDKFTGHPKGFAYIEFATEEGANNAVILNESLFRGRNLKVSIKRTNVPGISTTDRGRGRGFPRGIGFRGRGGLRGGFRGRGYHGFRGRGRMTPY | soluble
19 | MQQHEIRRFVERYFAANGCTFVEASDDYLTVQLTAEMDKELMNRPFYWHYIERTGGVPQPMRLTLITRASERTDKLKGERLHFGAPRLHQLFRSAQKRGSFIRLYEEPNAPLDGNAALHPWLGMNVTISYECDRKKDEIVSLGLHLISGTIVESFHERMRERRLTPKIPDYCFTISPLIKPRSGIGRLEQYIRSRIAADNHAWADEARRRWADDLALLDEFYKDCEEKPECYYIEKEALEKQYKPRITVSVINGGLFYLLPRSS | not soluble
20 | MSLDFKAIQALTANDMAKVNETIHAQLNSDVSLINQLGFYIISGGGKRLRPLLAVLSAKALGYQGSHHTTAAAFIEFIHTATLLHDDVVDESDLRRGKATANAAFGNAASVLVGDFIYTRSFQMMTELGSMKILKLMSDAVNVIAEGEVQQLMNCNDPDTTEASYMQVIYSKTARLFEAATQIGAILCDASPEVELAMQNYGKYLGTAFQLIDDVMDYTSDGDEMGKNVGDDLAEGKPTLPLLYAMQHGNPEQAAMIREAIEKANGMSRLNEILAAMEQTGSLQYTIEKALHEADKAIAELAILPESEYKQALITLAHMAVNRSKEGHHHHHH | soluble
